The assay concerns the target Ca2+. Put plainly: in situ Ca2+ titration of FRET with mNGΔN5-SOAR1L. Particulars: 25 µM digitonin, 10 µM ionomycin, EGTA.

As for STIM1 1-310-CFPΔC11 C49A; C56A, the equilibrium dissociation constant (Kd) stood at 740 µM (cells transfected with CasRx-P4HB (P4HB knockdown), Hill n 2.8±0.09); 750 µM (cells transfected with CasRx-PDIA3 (PDIA3 knockdown), Hill n 2.8±0.12); 760 µM (cells transfected with control CasRx, Hill n 2.7±0.12).

In general, Kd refers to the equilibrium constant for the complex coming apart. Higher therefore signals weaker binding.

The values above are taken from PMC11276767.
